Consider 3 molecules from US20230295273A1 (published 2023).

The target of experiment [1] is PDGFRα-Fc Site 3 mutant (E208N, S210S as printed) (human) (UniProt P16234). As to the kind of experiment: BLI (Octet Red); PDGFRα-Fc captured on anti-human Fc sensors, trimer as soluble analyte. A general note: Biolayer interferometry detects binding as a change in optical thickness at a sensor tip.
In experiment [2] the target is T1, PDGFRα-Fc Site 2 mutant (E108N, N110S) (human, UniProt P16234 24-528).
T1 construct: range 1-528; Mutations meant to introduce an N-linked glycosylation site; not shown: C-terminal human IgG1 (Fc) tag
T1 sequence (P16234 24-528 E108N/N110S limits assumed, form in doubt): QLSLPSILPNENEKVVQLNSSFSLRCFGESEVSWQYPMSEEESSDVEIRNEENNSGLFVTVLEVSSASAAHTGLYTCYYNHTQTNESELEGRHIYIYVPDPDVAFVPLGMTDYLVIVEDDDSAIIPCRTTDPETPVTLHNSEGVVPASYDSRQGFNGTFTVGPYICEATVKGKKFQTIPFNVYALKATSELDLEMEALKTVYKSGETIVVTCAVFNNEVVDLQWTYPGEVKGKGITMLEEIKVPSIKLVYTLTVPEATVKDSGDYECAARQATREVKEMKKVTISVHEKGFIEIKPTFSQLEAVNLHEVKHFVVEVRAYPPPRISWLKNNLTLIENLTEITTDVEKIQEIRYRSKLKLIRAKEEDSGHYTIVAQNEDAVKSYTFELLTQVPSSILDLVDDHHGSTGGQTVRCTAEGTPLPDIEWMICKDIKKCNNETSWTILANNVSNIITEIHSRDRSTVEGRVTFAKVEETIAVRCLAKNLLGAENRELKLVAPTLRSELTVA
The experiment is described as above.

For experiment [3], the target named is T2, PDGFRα-Fc Site 4 mutant (E263N, K265S) (human, UniProt P16234 24-528).
T2 construct: range 1-528; Mutations meant to introduce an N-linked glycosylation site; not shown: C-terminal human IgG1 (Fc) tag
T2 sequence (P16234 24-528 E263N/K265S limits assumed, form in doubt): as the sequence (P16234 24-528 E108N/N110S limits assumed, form in doubt) above, with N85E, S87N, E240N, K242S counted along it
The experiment is described as above.

The target in experiment [4] is T3, PDGFRα-Fc Site 1 mutant (E52N, E54S) (human, UniProt P16234 24-528).
T3 construct: range 1-528; Mutations meant to introduce an N-linked glycosylation site; not shown: C-terminal human IgG1 (Fc) tag
T3 sequence (P16234 24-528 E52N/E54S limits assumed, form in doubt): as the sequence (P16234 24-528 E108N/N110S limits assumed, form in doubt) above, with E29N, E31S, N85E, S87N counted along it
The experiment is described as above.

Experiment [5] has as its target T4, PDGFRα-Fc wild type (human PDGFRα (1-528) with C-terminal human IgG1 Fc tag) (human, UniProt P16234 24-528).
T4 construct: range 1-528; also called WT; PDGFRα WT; not shown: C-terminal human IgG1 (Fc) tag
The description is as above.

Experiment [6] deals with T4, PDGFRα-Fc wild type (human PDGFRα …). Description: BLI with PDGFRα-Fc (FIG. 7D).

T4 sequence (P16234 24-528 limits assumed, form in doubt): as the sequence (P16234 24-528 E108N/N110S limits assumed, form in doubt) above, with N85E, S87N counted along it
PDGFRα-Fc Site 3 mutant (E208N, S210S as printed) (human), sequence (P16234 24-528, stated change not applied): as the sequence (P16234 24-528 E108N/N110S limits assumed, form in doubt) above, with N85E, S87N counted along it

As for “HCMV gHgLgO trimer (soluble region, wild-type gO) (from UniProt P12824 24-716; Q68672 31-278)”, in experiment [1], the Kd (as a rule, the equilibrium constant for the complex coming apart) stood at 21.5 nM. This lies in the double-digit nanomolar range.

B1: HCMV gHgLgO trimer (soluble region, wild-type gO) (other)
chain 1: […]
chain 2: VAVSVAPTAAEKVPAECPELTRRCLLGEVFQGDKYESWLRPLVNVTGRNGPLSQLIRYRPVTPEAANSVLLDDAFLDTLALLYNNPDQLRALLTLLSSDTAPRWMTVMRGYSECGDGSPAVYTCVDDLCRGYDLTRLSYGRSIFTEHVLGFELVPPSLFNVVVAIRNEATRTNRAVRLPVSTAAAPEGITLFYGLYNAVKEFCLRHQLDPPLLRHLDKYYAGLPPELKQTRVNLPAHSRYGPQAVDAR
chain 3: […]
notes: Expressed in Expi293 cells; gH, gL and gO are disulfide-linked; also called HCMV trimer; gHgLgO complex; not shown: C-terminal Myc-Avi-His tag; C-terminal Twin-Strep-tag
Take B1: the Kd in experiment [2] was found to be 2.7 nM; in experiment [3] it was 4.65 nM; in experiment [4], 16.5 nM; in experiment [5], 2.25 nM.

B2: HCMV gHgLgO trimer with charge mutations at gO (M84R, F111R, R117E, F136R, R212E, R230E, R234E, R336E, F342E, A351R, N358R) (other)
chain 1: […]
chain 2: VAVSVAPTAAEKVPAECPELTRRCLLGEVFQGDKYESWLRPLVNVTGRNGPLSQLIRYRPVTPEAANSVLLDDAFLDTLALLYNNPDQLRALLTLLSSDTAPRWMTVMRGYSECGDGSPAVYTCVDDLCRGYDLTRLSYGRSIFTEHVLGFELVPPSLFNVVVAIRNEATRTNRAVRLPVSTAAAPEGITLFYGLYNAVKEFCLRHQLDPPLLRHLDKYYAGLPPELKQTRVNLPAHSRYGPQAVDAR
chain 3: […]
notes: also called Trimermut; TrimerMUT; not shown: C-terminal Myc-Avi-His tag; C-terminal Twin-Strep-tag
Turning to B2, in experiment [6], the Kd is 42500 nM and the “fold reduction of binding against Trimer-WT” value is roughly 10000 times.
